Experimental data from the DeepSol protein solubility set.

Test: soluble on expression in E. coli; label from the status in PepcDB or PDB records

| Sequence | soluble on expression in E. coli |
| --- | --- |
| MAMHPRKDWYELTRATNWTPSYVTEEQLFPERMSGHMGIPLEKWESYDEPYKTSYPEYVSIQREKDAGAYSVKAALERAKIYENSDPGWISTLKSHYGAIAVGEYAAVTGEGRMARFSKAPGNRNMATFGMMDELRHGQLQLFFPHEYCKKDRQFDWAWRAYHSNEWAAIAAKHFFDDIITGRDAISVAIMLTFSFETGFTNMQFLGLAADAAEAGDYTFANLISSIQTDESRHAQQGGPALQLLIENGKREEAQKKVDMAIWRAWRLFAVLTGPVMDYYTPLEDRSQSFKEFMYEWIIGQFERSLIDLGLDKPWYWDLFLKDIDELHHSYHMGVWYWRTTAWWNPAAGVTPEERDWLEEKYPGWNKRWGRCWDVITENVLNDRMDLVSPETLPSVCNMSQIPLVGVPGDDWNIEVFSLEHNGRLYHFGSEVDRWVFQQDPVQYQNHMNIVDRFLAGQIQPMTLEGALKYMGFQSIEEMGKDAHDFAWADKCKPAMKKSA | soluble |
| MSLGEEAAGEGGEAEKTITINVGLLVDETGPTSDVGKGYSLGAELAFKYFNEKGIYTKDGVRVNINYIKRDYAYNPTTAEEYYREFRDRYGVIAIIGWGTADTEKLSDQVDTDKITYISASYSAKLLVKPFNFYPAPDYSTQACSGLAFLASEFGQGKLALAYDSKVAYSRSPIGAIKKAAPSLGLQVVGDYDLPLRATEADAERIAREMLAADPDYVWCGNTISSCSLLGRAMAKVGLDAFLLTNVWGFDERSPQLIGEGGYGKVFGISPFIYPMFGQDVEGIQTIFEAARMNGVSEDQINLRVVQGFVNVWLLIKAIESVTSQDLQERGGEALKEALEANTFDLGGITADTIDYEPGFHLAYRKVFIIKLGENGELQLMGKFEAPSQVDCARYTIEEGHHHHHH | soluble |
| ASIPEGTDKNAPLTSIPGYIPNMLSPPKGDAFAARNQFALAIDFEHQPPFFDVTETHKAATWLLHPQAPKVEMPADVKEKIAITRKALAIKMPSQPVKQPKSNGNKKTKTKSAR | soluble |
| MTEEFNESMINDIKEGDKVTGEVQEIEEKQVIVAVNGAKFNGIIPISQLSTHHIDNPSDAVKVGDEIGAYVTKVEYDEENETGAYILSKRQLETEKSYEFLQEQLDNNQTIEAKVTEVVKGGLVVDVGQRGFVPASLISTDFIEDFSDFEGQVLKLKVEELDPANNRVILSRKAVEALENAEKKDELLESLNEGDVIEGKVARLTNFGAFVDIGGVDGLVHVSELSHEHVKSPEDVVSIGETVNVKIKSVDKDSERISLSIKDTLPSPFESIKGEFNEGDVIEGTVVRLANFGAFVEIKPGVQGLVHISEISHSHIGSPSEALEPGQVVSVKVLGVDVENERISLSIKATLPNENVIESDSETTQSYLDNGSDDEDNPTLGDVFGDKLKDFKFLEHHHHHH | soluble |
| MKVIGINGSPRRAGNTSIMLKTIFEVLEDEGIETELIQVGGTNIKGCRACYACIKNKNSECSTKGDGFNEIFAKMVEADGMILGSPTYFADITPELKALIDRAGFVSRTNGQLFRHKVGASVVSLRRGGGIHAYDSINHLFQICQMFMVGSTYWNLGFGGRDGGEVVNDTEGMENMRDLGHSMAFLLKKLHNLEHHHHHH | not soluble |
| MGSDKIHHHHHHAPNEEGISVQKMTGFPEGEPGFSLGVSACYAGIYQGELLIAGGCNFPETPAAEGGKKKFYQGIYAADASADSVFVWRKVGQLPVAAAYGVSVSTPRGIVCVGGSNENGSLSTVYRLSLSDDKQAVIVDTLPSLPCTMDNMSGSVVDYTLFVAGGNVNGKPSNGLYCLNLGNPETGWQQLPDFPGAPRVQPVCVGQRKENETLLYLWGGFSGAFDGRSATLSTDGYCYSPSLQQWQPVSTPIGSDSVPVALGGGAGIALTDSLILCTGGVNKDIFLSALQREEMMKAAVTGGNQAAVDSLKSEAKTYMLHPAEWYRFNDRILIYNTRRDKWEEAVRSQDVARAGAALTTGQGQTFFNINGELKPGIRTPEIAKIMID | not soluble |
| MQLKRVAEAKLPTPWGDFLMVGFEELATGHDHLALIFGDISGDKPVLSRVHSECLTGDALFSLRCDCGFQLEVALTRIAEEGRGVLIYHRQEGRNIGLLNKIRAYALQDLGADTVEANHQLGFAADERDFTLCSDMYKLLGIKAVRLLTNNPKKVEILTQAGINIVERVPLIVGENPKNEHYLATKAAKMGHLLTK | not soluble |
| MGSDKIHHHHHHMRANRIGYVYSNKRFAGELLEFNTLEGYEYSFTYAASYIASGLPQIGYKLPITHEPYRRNYLPPFFANLMSEGWVRRHQARIARLDQDDKFGLLLGNGAELIGPVSVFTEYRGDNISAAIEVIAVPMKSLKGYQIDFPRCEFNEVAMESLGGVSISGVQPKMFLTYAEGNPKTLTNAVGMGPYIVKPSPNDFPELAENEFMVMQLCKAVGFNVAEHHLVPFSCGQLAYVTARFDLDRETGRRHEFIEDLASALNVAPGNKSSDTLSYEKAIKEAYQLSGGHVQLLKDGFLQVLMAYIVGNNDLHLKNISLSRASDSNRASGYTPIYDMVSVAPYRQYDNSGELSIWLLESEVERGFSTSSYEHYGYYTGHDFITFAEAIGLGERAGKVLMNDLGKKVAKARDKVIANAPGSEQLKQIISERITARLSTLTRPALR | not soluble |
| MVLFDQATYEKLLIEAPKFKLITPSILSDRMRVYICIYLLISYSRNDSYIIWQ | not soluble |
| SLSSPGDIPAEDFADHVRKNERDSNCGFADEYQQLSLVGHSQSQMVASASENNAKNRYRNVLPYDWSRVPLKPIHEEPGSDYINASFMPGLWSPQEFIATQGPLPQTVGDFWRLVWEQQSHTLVMLTNCMEAGRVKCEHYWPLDSQPCTHGHLRVTLVGEEVMENWTVRELLLLQVEEQKTLSVRQFHYQAWPDHGVPSSPDTLLAFWRMLRQWLDQTMEGGPPIVHCSAGVGRTGTLIALDVLLRQLQSEGLLGPFSFVRKMRESRPLMVQTEAQYVFLHQCICGSSNSQPRPQPRRKSRMRMSKTSSTRTWPPSRPTSWRSK | soluble |
| MSLQPILQLLEKDEQREALHYFIEKLPQLKEATESMEEKITFIQHVMNDKQTLESLFAEWEAKAAPFRLTSEHFEAIATLIQLLPTLVQWLQKAEEFVSFVTSVMNDRESMAYLTKGIKDIVPIGKGLDILKETNERFACERDSTTVSLLRIYRLLKHPIVQDGVKYIETLLDVASKHK | not soluble |
| MSLTFEEKLSQMYNEIANEISGMIPVEWEKVYTIAYVDDEGGEVVFNYTKPGSEDLNYYSDIPKDCNVSKDIFKNSWFKVYRMFDELRETFKKEDLEPWTSCEFDFTRKGNLKVSFDYIDWIKLGFGPSGKENYYMYKKFGILPDMEYEMEEIRAVEKYVKEEGHHHHHH | soluble |
| SLRTEQEMMDVILTIAKKEERIRAVYMNGSRTNSNVPKDLFQDYDIVYVVTDIAPFIQEQQWLKKFGEPLMIQEPDQLDAGIGVNRDFSRRYAFLMLFTDGNRIDLTLQTKETMREVYENDTLTVPLLDKDHCLPPIPPPSDSDYHVKEPTEGEFISCTNNFWWCLQNVAKGIWRDELPYAKQMFELTTRASLDEMVNWWIGLENDFQLSTGKLGKYFKKHLPPPYWAMYEATYANSDYEQMWESIFIACDLFRTLAKDVAAACSFTYPETDDRNMTDYLHRVKNLSADATDM | soluble |
| MGSDKIHHHHHHMLVGREKELHLLHDIQNDDSSHFVAVYGRMREGKTFLIREAFGYRFTFQHAGLSEGGMKEQIYAFTSSLKDAGYEVKKQPQNWLEAFEALKDVIRLSSEKKKIIFIDELSWMDTQKSDLMVALENFWNGFASARKDIVLIVCASATSWMLSKVVHNKGGLYNRLTEQIHLRTFCLRECEAYVKAAGLALNRNQILQYYMIFGGVPYYWGFLKKGLSLSQNIDSILFEKDAPLRDEFKYLYASVFKKPENYVKIIEALGTKKVGMTREEIITSTKIPNSGDLTTKLEELESCGFIRKYNAFGMKKKNAIYQLMDCFTLFYFKFLKSEPTDEHFWTNQINTPAVNTWLGLAFERVCMEHVDQIKFKLGISGVLTEINSWYCKSDPDNGIFGSQIDMLIARKDQVINLCEMKYSQSEYTITEKVDRSIRNKISDLRVVSGTKYAIYPTLITTYGVVENSYSQELQSVVTMDDLFA | not soluble |
| YDPYQHIEKATNRRNMVLNAMVETGDITKAEGDKYKATKIVLNDQSKDPLANKYPWYVDAVINEAVNEADITQDEIMQKGY | not soluble |
| SSSKFQQVEQDVKAIEVSLSARIGVSVLDTQNGEYWDYNGNQRFPLTSTFKTIACAKLLYDAEQGKVNPNSTVEIKKADLVTYSPVIEKQVGQAITLDDACFATMTTSDNTAANIILSAVGGPKGVTDFLRQIGDKETRLDRIEPDLNEGKLGDLRDTTTPKAIASTLNKFLFGSALSEMNQKKLESWMVNNQVTGNLLRSVLPAGWNIADRSGAGGFGARSITAVVWSEHQAPIIVSIYLAQTQASMEERNDAIVKIGHSIFDVYTSQSR | soluble |
| MGSSHHHHHHSSGLVPRGSHMDAETVGRVKRFIQENVFVAANHNGSPLSIKEAPKELSFGARAELPRIHPVASKLLRLMQKKETNLCLSADVSLARELLQLADALGPSICMLKTHVDILNDFTLDVMKELITLAKCHEFLIFEDRKFADIGNTVKKQYEGGIFKIASWADLVNAHVVPGSGVVKGLQEVGLPLHRGCLLIAEMSSTGSLATGDYTRAAVRMAEEHSEFVVGFISGSRVSMKPEFLHLTPGVQLEAGGDNLGQQYNSPQEVIGKRGSDIIIVGRGIISAADRLEAAEMYRKAAWEAYLSRLGV | soluble |
| MGKVPEEVRSYLMEAHSLAGQWSLPNDRGDHTNSEAYDVNSVAIIGGGTMGKAMAICFGLAGIETFLVVRNEQRCKQELEVMYAREKSFKRLNDKRIEKINANLKITSDFHKLSNCDLIVESVIEDMKLKKELFANLENICKSTCIFGTNTSSLDLNEISSVLRDPSNLVGIHFFNPANVIRLVEIIYGSHTSSQAIATAFQACESIKKLPVLVGNCKSFVFNRLLHVYFDQSQKLMYEYGYLPHQIDKIITNFGFLMGPMTVADMNGFDVMEKLKKENGLEPNPIEKEMWRLKRYGRKTNKGFYKYDDKTQRKENDTEMEQIIRRVSQNAKSNIQIINDQDVINFMLYPTVNEGYRCIEEGVISNESLIDIMFILGFGWPIHSGGPMRFGKTEGLDKIANMLVHWSSLEPKESAYIVADALKTANNKLMSSKL | soluble |
| MSYYHHHHHHDYDIPTTENLYFQGAMGSGIPMSLPGSTHSTAAELTGPSLVEVLRARPWFEEPPKAVELEGLAACEGEYSQKYSTMSPLGSGAFGFVWTAVDKEKNKEVVVKFIKKEKVLEDCWIEDPKLGKVTLEIAILSRVEHANIIKVLDIFENQGFFQLVMEKHGSGLDLFAFIDRHPRLDEPLASYIFRQLVSAVGYLRLKDIIHRDIKDENIVIAEDFTIKLIDFGSAAYLERGKLFYTFCGTIEYCAPEVLMGNPYRGPELEMWSLGVTLYTLVFEENPFCELEETVEAAIHPPYLVSKELMSLVSGLLQPVPERRTTLEKLVTDPWVTQPVNLADYTWEEVCRVNKPESGVLSAASLEMGN | soluble |
| MHHHHHHSSGVDLGTENLYFQSMVKPAGPTVEQQGEMARSGGRMLATLEPEQRAEIIHHLADLLTDQRDEILLANKKDLEEAEGRLAAPLLKRLSLSTSKLNSLAIGLRQIAASSQDSVGRVLRRTRIAKNLELEQVTVPIGVLLVIFESRPDCLPQVAALAIASGNGLLLKGGKEAAHSNRILHLLTQEALSIHGVKEAVQLVNTREEVEDLCRLDKMIDLIIPRGSSQLVRDIQKAAKGIPVMGHSEGICHMYVDSEASVDKVTRLVRDSKCEYPAACNALETLLIHRDLLRTPLFDQIIDMLRVEQVKIHAGPKFASYLTFSPSEVKSLRTEYGDLELCIEVVDNVQDAIDHIHKYGSSHTDVIVTEDENTAEFFLQHVDSACVFWNASTRFSDGYRFGLGAEVGISTSRIHARGPVGLEGLLTTKWLLRGKDHVVSDFSEHGSLKYLHENLPIPQRNTN | soluble |
